For this assay, the target named is T1, Recombinant mouse LSR-Fc (mouse, UniProt Q99KG5 36-206, limits assumed).
T1 construct: not shown: Fc part
T1 sequence (looked up): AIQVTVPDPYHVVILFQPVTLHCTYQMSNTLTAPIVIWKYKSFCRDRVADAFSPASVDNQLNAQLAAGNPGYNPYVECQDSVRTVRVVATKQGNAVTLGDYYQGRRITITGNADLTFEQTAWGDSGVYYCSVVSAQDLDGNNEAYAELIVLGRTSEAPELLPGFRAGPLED
In words: ELISA, LSR-Fc coated on plate. On the technique in general: In an ELISA, binding on a coated surface is turned into a signal by an enzyme label.

B1: Chicken mouse chimeric anti-LSR antibody (#27-6mF18) (antibody, V domains shown)
VH: AVTLDESGGGLQMPGGALSLVCRASGFDFSSYEMQWIRQAPGKGLEWVAGISGAGSGTRYGSAVKGRATISRDNGQSTVRLQLNNLRAEDTGIYFCARSSNIDAWGHGTEVTVST
VL: ALTQPASVSANLGGTVKITCSGGGRYAESYYYGWYQQKSPGSTPVTVIYWNDKRPSNIPSRFSGSLSGSTNTLTITGVQVEDEAVYFCGSYEDSRSAFGAGTTLTV
notes: Chicken-mouse chimeric antibody; also called anti-LSR monoclonal antibody #27-6 mF-18
Regarding B1, the binding result is reported as “binds”.
